# Reference: patent US11459578B2, “Carbon fixation systems in plants and algae” (NMC, INC., priority 2014, dated 2022)
# “Also recorded” adds a separate entry of the source.
# B1: LCIA: chloroplast envelope localized bicarbonate anion transporter, expressed in transgenic plants (protein, listed as Chlamydomonas reinhardtii)
# chain: MQTTMTRPCLAQPVLRSRVLRSPMRVVAASAPTAVTTVVTSNGNGNGHFQAATTPVPPTPAPVAVSAPVRAVSVLTPPQVYENAINVGAYKAGLTPLATFVQGIQAGAYIAFGAFLAISVGGNIPGVAAANPGLAKLLFALVFPVGLSMVTNCGAELFTGNTMMLTCALIEKKATWGQLLKNWSVSYFGNFVGSIAMVAAVVATGCLTTNTLPVQMATLKANLGFTEVLSRSILCNWLVCCAVWSASAATSLPGRILALWPCITAFVAIGLEHSVANMFVIPLGMMLGAEVTWSQFFFNNLIPVTLGNTIAGVLMMAIAYSISFGSLGKSAKPATA
# Tests used:
# Format in all cases: in vivo
# Arabidopsis = assay: Growth phenotypes of transgenic Arabidopsis
# Description: (§1) Previously, reconstitution of a functional inorganic CCM in C3 plants to suppress photorespiration and enhance photosynthesis was proposed. In WO 2012/125737, it was hypothesized that expression of a minimum of three algal CCM proteins would be sufficient to elevate internal plastid CO2 concentrations high enough to suppress photorespiration. These three algal CCM genes included the Chlamydomonas plasma membrane-localized and ATP-dependent bicarbonate transporter, HLA3; the chloroplast envelope localized bicarbonate anion transporter, LCIA; and a chloroplast stromal-localized carbonic anhydrase (HCA-II) to accelerate conversion of bicarbonate into CO2. […] To test this hypothesis, we generated multiple independent transgenic Arabidopsis and Camelina plants expressing each CCM gene as a single gene construct, as well as a stacked 3-gene construct. The expression of each gene was controlled by the light-regulated Cab1 gene promoter.
# Finally, we also grew transgenics on ammonium with sucrose which would presumably provide additional ATP via respiration. We hypothesized that growth on nitrate or ammonium with sucrose would provide additional ATP that could potentially drive HLA3 activity.
# Camelina [1] = assay: Growth phenotypes and seed recovery of transgenic Camelina
# Description: as §1
# Camelina [2] = assay: CO2-dependent photosynthetic rates of transgenic Camelina
# Description: FIGS. 5A-5C. Growth phenotypes of WT and LCIA transgenic (T1) Arabidopsis plants four weeks after germination. (B) Four-week-old WT (left 4 plants) and independent transgenic Camelina (right 4 plants) expressing LCIA. (C) CO2-dependent photosynthetic rates of WT and LCIA transgenic Camelina.
# We propose that the substantially greater carbon sink-strength of Camelina relative to Arabidopsis accounts for the enhanced growth phenotype observed in Camelina LCIA plants. In support of this hypothesis, we observed that Camelina LCIA transgenics had higher CO2-dependent rates of photosynthesis and lower CO2 compensation points (40 vs. 53 ppm CO2) than WT plants indicative of facilitated inorganic carbon uptake by LCIA (FIG. 5C).
molecule,measurement,setting,value
B1,growth phenotype relative to WT,Arabidopsis,substantially impaired in growth; also recorded: severely depressed growth phenotypes
same,growth phenotype / viability relative to WT,Camelina [1],grew better than WT; also recorded: increased growth rates
same,CO2-dependent photosynthetic rates relative to WT,Camelina [2],higher CO2-dependent photosynthetic rates
same,CO2 compensation point,Camelina [2],40 ppm CO2
same,CO2 compensation points relative to WT,Camelina [2],reduced CO2 compensation points
same,higher photosynthetic rates than WT,Camelina [2]; ambient CO2 concentrations,up to 25%
